Laboratory results: the supplement of paper PMC7125110
± gives the standard error. For part of these data: Variants at the floor of the assay were thinned out.

B1: glmS ribozyme (parent)
chain: AUAAAAGCGCCAGAACUACAGAAAUGUAGUUGACGAGGAGGAGGUUUAUCGAAUUUUCGGCGGAUGCCUCCAAA

How the values were obtained:
Details in all cases: with glucosamine-6-phosphate
[1] = variants of: B1; assay: kcat; higher = faster cleavage; RNA array
How it was run: (§1)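 Ribozyme variants carrying barcodes were transcribed in situ on sequenced MiSeq chips by E. coli RNA polymerase and tracked at 37 °C with a hybridised Cy3 probe. They were exposed to 40 μM to 10 mM glucosamine-6-phosphate in HEPES/KCl/Mg(OAc)2 buffer. kobs came from exponential decay fits of normalised per-tile medians, and kcat and KM from weighted Michaelis–Menten fits.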

[2] = variants of: B1; assay: KM; higher = weaker cofactor use; RNA array
How it was run: as §1

[3] = variants of: B1; assay: self-cleavage kobs at 160 uM GlcN6P; higher = faster cleavage; RNA array
How it was run: as §1

[4] = variants of: B1; assay: self-cleavage kobs at 640 uM GlcN6P; higher = faster cleavage; RNA array
How it was run: as §1

[5] = variants of: B1; assay: self-cleavage kobs at 2500 uM GlcN6P; higher = faster cleavage; RNA array
How it was run: as §1

[6] = variants of: B1; assay: self-cleavage kobs at 10000 uM GlcN6P; higher = faster cleavage; RNA array
How it was run: as §1

[7] = variants of: B1; assay: self-cleavage kobs at 40 uM GlcN6P; higher = faster cleavage; RNA array
How it was run: as §1

Variant | kcat [1] | KM [2] | self-cleavage kobs at 160 uM GlcN6P [3] | self-cleavage kobs at 640 uM GlcN6P [4] | self-cleavage kobs at 2500 uM GlcN6P [5] | self-cleavage kobs at 10000 uM GlcN6P [6] | self-cleavage kobs at 40 uM GlcN6P [7]
AUAAAAGCGCCAGAACUACAGAAAUGUAGUUGACGAUGAGGAGGUUUAACGAAUUUUCGGGGGAUGCCUGCAAA [G37U U49A C61G C70G] | 2.13e-05 ± 6.5e-06 s⁻¹ | – | – | – | – | – | –
AUAAAAGCGCCAGAACUACAGAAAUGUAGUUAACGAGGAGGAGGUUUAUCGAAUUUUCGGCGGAUGCCUCAAAA [G32A C71A] | 0.000628 ± 0.00012 s⁻¹ | 2570 ± 890 µM | 5.89e-05 ± 1.2e-05 s⁻¹ | 0.000112 ± 1.6e-05 s⁻¹ | 0.000293 ± 4.5e-05 s⁻¹ | 0.00052 ± 6e-05 s⁻¹ | –
AUAAAAGCGCCAUAACUACAGAAAUGUAGAUGACGAGGAGGAGGUUUAUCGAAUUUUCGGCGGAUGCCUCCAAA [G13U U30A] | 5.44e-05 ± 3.6e-06 s⁻¹ | 728 ± 260 µM | – | 3.03e-05 ± 1.5e-05 s⁻¹ | 3.78e-05 ± 1.1e-05 s⁻¹ | 5.22e-05 ± 8.6e-06 s⁻¹ | –
AUAAAAGCGCCAGAGCUACAGAAAUGUAGUUGACGAGGAGGAGAUUUAUCGAAUUUUCGGCGGAUGCCUCCAAA [A15G G44A] | 0.000572 ± 0.00011 s⁻¹ | 2050 ± 620 µM | 2.81e-05 ± 1.2e-05 s⁻¹ | 0.000152 ± 2.1e-05 s⁻¹ | 0.000327 ± 5.5e-05 s⁻¹ | 0.00044 ± 9.5e-05 s⁻¹ | –
AUAAAAGCGCCAGAACUACAGAAAUGUAGUUGACGAGGAGGAGGUUUAUCGAAUUUGCGGCGGAUGCCUCCAAA [U57G] | 0.000109 ± 3.4e-06 s⁻¹ | 2910 ± 250 µM | – | 2.22e-05 ± 1.9e-06 s⁻¹ | 4.95e-05 ± 1.4e-06 s⁻¹ | 8.52e-05 ± 1.5e-06 s⁻¹ | –
AUAAAAGCGCCAGAACUACAGAAAUGUAGUUGACGACGAGGAGGAUUAUCGAAUUUUCGGCGGAUGCCUCCAAA [G37C U45A] | 0.00017 ± 2.9e-05 s⁻¹ | 5840 ± 1900 µM | – | 2.56e-05 ± 1.3e-05 s⁻¹ | 4.81e-05 ± 9.9e-06 s⁻¹ | 0.000109 ± 1.6e-05 s⁻¹ | –
AUAAAAGCGCCAGAACUACAGAAAUGUAGUUGACGAGGAGCAGGUGUAUCGAAUUUUCGGCGGAUGCCUCCAAA [G41C U46G] | 0.000114 ± 3.4e-06 s⁻¹ | 2060 ± 210 µM | – | – | 6.37e-05 ± 1.1e-05 s⁻¹ | 9.41e-05 ± 1e-05 s⁻¹ | –
AUAAAAGCGCCAGGACUACAGAAAUGUAGUUGACGAGGAGGAGAUUUAUCGAAUUUUCGGCGGAUGCCUCCAAA [A14G G44A] | 0.00146 ± 0.00055 s⁻¹ | – | 4.23e-05 ± 1.4e-05 s⁻¹ | 0.000664 ± 0.00018 s⁻¹ | 0.00104 ± 0.00021 s⁻¹ | 0.00102 ± 0.00013 s⁻¹ | 2.21e-05 ± 9.5e-06 s⁻¹
AUAAAAGCGCCGGAACUACAGAAAUGUAGUUGACGAGGAGUAGGUUUAUCGAAUUUUCGGCGGAUGCCUCCAAA [A12G G41U] | 0.000763 ± 4.6e-05 s⁻¹ | – | – | 4.77e-05 ± 1.4e-05 s⁻¹ | 0.000147 ± 2.1e-05 s⁻¹ | 0.000377 ± 4.1e-05 s⁻¹ | –
AUAAAAGCGACAGAACUACAGAAAUGUAGUUGACGAGGAGGAGGUUUAUCGAAUUUUCGGCGGAUGCCUCGAAA [C10A C71G] | 3.78e-05 ± 1.3e-05 s⁻¹ | – | – | 5.99e-05 ± 2e-05 s⁻¹ | – | – | –
AUAAAAGCGCCAGAAUUACAGAAAUGUAGUUGACGAGGAGGAGGUUUAUCGAAUCUUCGGCGGAUGCCUUCAAA [C16U U55C C70U] | 0.000581 ± 5.6e-05 s⁻¹ | 2450 ± 440 µM | – | 0.000125 ± 2.7e-05 s⁻¹ | 0.000261 ± 7.6e-05 s⁻¹ | 0.000482 ± 9.6e-05 s⁻¹ | –
AUAAAAGCGCCCGAACUACAGAAAUGUAGAUGACGAGGAGGAGGUUUAUCGAAUUUUCGGCGGAUGCCUCCAAA [A12C U30A] | 0.00751 ± 0.0021 s⁻¹ | 7100 ± 2600 µM | 0.000144 ± 3e-05 s⁻¹ | 0.000745 ± 0.0002 s⁻¹ | 0.0017 ± 0.00056 s⁻¹ | 0.00447 ± 0.00074 s⁻¹ | 5.95e-05 ± 1.5e-05 s⁻¹
AUAAAAGCGCCAGAACUACAGAAAUGUAGUUGACGAGGAGCAGGUUAAUCGAAUUUUCGGCGGAUGCCUCCAAA [G41C U47A] | 0.000354 ± 1.6e-05 s⁻¹ | 4510 ± 420 µM | – | 4.21e-05 ± 1.2e-05 s⁻¹ | 0.000134 ± 2.8e-05 s⁻¹ | 0.000243 ± 2.7e-05 s⁻¹ | –
AUAAAAGCGCCAGAACUACAGAAAUGUAGUUGACGAGGAGCAGGUUUAUCGAUUUUUCGGCGGAUGCCUCCAAA [G41C A53U] | 0.000241 ± 3.2e-05 s⁻¹ | 1290 ± 380 µM | – | 7.44e-05 ± 1.2e-05 s⁻¹ | 0.000197 ± 3.2e-05 s⁻¹ | 0.000201 ± 2.9e-05 s⁻¹ | –
AUAAAAGCGCCAGAACUACAGAAAUGUAGUUGACGAGGAAGAGGUUUAUUGAACUUUCGGCGGAUGCUUCCAAA [G40A C50U U54C C68U] | < 1e-05 s⁻¹ | – | < 1e-05 s⁻¹ | – | – | < 1e-05 s⁻¹ | < 1e-05 s⁻¹
AUAAAAGCGCCAGAACUACAGAAAUGUAGUUGACGAAGAGGAGGUUCAUCGAAUUUUCGGCGGAUGCCUCCAAA [G37A U47C] | 0.000634 ± 0.00022 s⁻¹ | – | 8.31e-05 ± 2.2e-05 s⁻¹ | 0.000181 ± 3.8e-05 s⁻¹ | 0.000398 ± 7.7e-05 s⁻¹ | 0.00103 ± 0.00045 s⁻¹ | –
